Assay results taken from article PMC7501853.

Target: nesprin-2-Giant, Q6ZWQ0-1
Experiment: Duolink PLA (proximity ligation assay) in cells
Conditions: chain shown with the change; Bax/Bak DKO MEFs, transient transfection, in the presence of Q-VD-OPH; anti-Bax (6A7) Ab and anti-nesprin-2G Ab; n = 3; parent: est. 5.1; read off a plot; scale: fold of normalized Duolink dots per transfected cell relative to GFP

B1: GFP-Bax, Q07812 63-65A (protein)
chain: MDGSGEQPRGGGPTSSEQIMKTGALLLQGFIQDRAGRMGGEAPELALDPVPQDASTKKLSECAAAIGDELDSNMELQRMIAAVDTDSPREVFFRVAADMFSDGNFNWGRVVALFYFASKLVLKALCTKVPELIRTIMGWTLDFLRERLLGWIQDQGGWDGLLSYFGTPTWQTVTIFVAGVLTASLTIWKKMG
B1 showed a response of 8.8.
